Publication PMC3785227

Biological target: stripped core gp120 (HIV strain YU2), displayed on yeast (HIV-1 strain YU2)
Assay: flow cytometry on cells

| Substance | Kd [nM] |
| --- | --- |
| b12, broadly neutralizing anti-gp120 antibody against the CD4 binding site | 0.041 |
| b13, non-neutralizing CD4 binding site-directed anti-gp120 antibody | 0.9 |
